Reference: patent publication US20250288643A1

Target: monkey CD47 on LLC-MK2 cells (rhesus monkey) (UniProt H9ERV1)
Assay: flow cytometry, LLC-MK2 cells

Hu5F9-G4 (antibody)
EC50 (read off the curve): 0.06 nM
